Measurements: US20210395718A1, “NOVEL KETOSE 3-EPIMERASE” (NATIONAL UNIVERSITY CORPORATION KAGAWA UNIVERSITY, priority 2018, published 2021)

B1: Ketose 3-epimerase mutant 7: amino acid-substituted mutant of SEQ ID NO: 1 (protein)
chain: MKIGCHGLVWTGRFDAEGIRYSVQKTKEAGFDLIEFPLMDPFSFDVATAKSALAEHGLSVSASLGLSEATDVSSEDPAIVKAGEELLNRALDVLAELGATDFCGVIYSAMKKYMEPATEQGLSNSKAAVGRVVDRAAGLGINVSLEVVNRYETNVLNTGRQALSYLSDVKRPNLGVHLDTYHMNIEESDMFSPVLDTAEVLKYVHIGESHRGYLGTGSVDFDNFFKALGRIGYDGPVVFESFSSAVVAPDLSRMLGIWRNLWADNEELGAHANAFIRDKLTAIKTIELH
modifications: Arthrobacter histidinolovorans
B2: Ketose 3-epimerase mutant 8: amino acid-substituted mutant of SEQ ID NO: 1 (protein)
chain: MKIGCHGLVWTGRFDAEGIRYSVQKTKEAGFDLIEFPLMDPFSFDVATAKSALAEHGLTASASLGLSEATDVSSEDPAIVKAGEELLNRALDVLAELGATDFCGVIYSAMKKYMEPATEQGLSNSKAAIGRVVDRAAGLGINVSLEVVNRYETNVLNTGRQALSYLSDVKRPNLGVHLDTYHMNIEESDMFSPVLDTAEVLKYVHIGESHRGYLGTGNVDFDNFFKALGRIGYDGPVVFESFSSAVVAPDLSRMLGIWRNLWADNEELGAHANAFIRDKLTAIKTIELH
modifications: Arthrobacter histidinolovorans
B3: Ketose 3-epimerase mutant 9: amino acid-substituted mutant of SEQ ID NO: 1 (protein)
chain: MKIGCHGLVWTGRFDAEGIRYSVQKTKEAGFDLIEFPLMDPFSFDVATAKSALAEHGLSVSASLGLSEATDVSSEDPAIVKAGEELLNRALDVLAELGATDFCGVIYSAMKKYMEPATEQGLSNSKAAVGRVVDRAAGLGINVSLEVVNRYETNVLNTGRQALSYLSDVKRPNLGVHLDTYHMNIEESDMFSPVLDTAEALKYVHIGESHRGYLGTGSVDFDNFFKALGRIGYDGPVVFESFSSAVVAPDLSRMLGIWRNLWADNEELGAHANAFIRDKLTAIKTIELH
modifications: Arthrobacter histidinolovorans
B4: Ketose 3-epimerase mutant 10: amino acid-substituted mutant of SEQ ID NO: 1 (protein)
chain: MKIGCHGLVWTGRFDAEGIRYSVQKTKEAGFDLIEFPLMDPFSFDVATAKSALAEHGLSVSASLGLSEATDVSSEDPAIVKAGEELLNRALDVLAELGATDFCGVIYSAMKKYMEPATEQGLSNSKAAVGRVVDRAAGLGINVSLEVVNRYETNVLNTGRQALSYLSDVKRPNLGVHLDTYHMNIEESDMFSPVLDTAEALKYVHIGESHRGYLGTGNVDFDNFFKALGRIGYDGPVVFESFSSAVVAPDLSRMLGIWRNLWADNEELGAHANAFIRDKLTAIKTIELH
modifications: Arthrobacter histidinolovorans
B5: Ketose 3-epimerase mutant 11: amino acid-substituted mutant of SEQ ID NO: 1 (protein)
chain: MKIGCHGLVWTGRFDAEGIRYSVQKTKEAGFDLIEFPLMDPFSFDVATAKSALAEHGLTASASLGLSEATDVSSEDPAIVKAGEELLNRALDVLAELGATDFCGVIYSAMKKYMEPATEQGLSNSKAAIGRVVDRAAGLGINVSLEVVNRYETNVLNTGRQALSYLSDVKRPNLGVHLDTYHMNIEESDMFSPVLDTAEALKYVHIGESHRGYLGTGSVDFDNFFKALGRIGYDGPVVFESFSSAVVAPDLSRMLGIWRNLWADNEELGAHANAFIRDKLTAIKTIELH
modifications: Arthrobacter histidinolovorans
B6: Ketose 3-epimerase mutant 12: amino acid-substituted mutant of SEQ ID NO: 1 (protein)
chain: MKIGCHGLVWTGRFDAEGIRYSVQKTKEAGFDLIEFPLMDPFSFDVATAKSALAEHGLTASASLGLSEATDVSSEDPAIVKAGEELLNRALDVLAELGATDFCGVIYSAMKKYMEPATEQGLSNSKAAIGRVVDRAAGLGINVSLEVVNRYETNVLNTGRQALSYLSDVKRPNLGVHLDTYHMNIEESDMFSPVLDTAEALKYVHIGESHRGYLGTGNVDFDNFFKALGRIGYDGPVVFESFSSAVVAPDLSRMLGIWRNLWADNEELGAHANAFIRDKLTAIKTIELH
modifications: Arthrobacter histidinolovorans
B7: Ketose 3-epimerase mutant 13: amino acid-substituted mutant of SEQ ID NO: 1 (protein)
chain: MKIGCHGLVWTGRFDAEGIRYSVQKTKEAGFDLIEFPLMDPFSFDVATAKSALAEHGLTASASLGLSEATDVSSEDPAIVKAGEELLNRALDVLAELGATDFCGVIYSAMKKYMEPATEQGLSNSKAAIGRVVDRAAGLGINVSLEVVNRYETNVLNTGRQALSYLSDVKRPNLGVHLDTYHMNIEESDMFSPVLDTAEVLKYVHIGESHRGYLGTGSVDFDNFFKALGRIGYDGPVVFESFSSAVVAPDLSRMLGIWRNLWADNEELGAHANAFIRDKLTAIKTIELH
modifications: Arthrobacter histidinolovorans
B8: Ketose 3-epimerase mutant 14: amino acid-substituted mutant of SEQ ID NO: 1 (protein)
chain: MKIGCHGLVWTGRFDAEGIRYSVQKTKEAGFDLIEFPLMDPFSFDVATAKSALAEHGLTASASLGLSEATDVSSEDPAIVKAGEELLNRALDVLAELGATDFCGVIYSAMKKYMEPATEQGLSNSKAAVGRVVDRAAGLGINVSLEVVNRYETNVLNTGRQALSYLSDVKRPNLGVHLDTYHMNIEESDMFSPVLDTAEVLKYVHIGESHRGYLGTGSVDFDNFFKALGRIGYDGPVVFESFSSAVVAPDLSRMLGIWRNLWADNEELGAHANAFIRDKLTAIKTIELH
modifications: Arthrobacter histidinolovorans
B9: Ketose 3-epimerase mutant 15: amino acid-substituted mutant of SEQ ID NO: 1 (protein)
chain: MKIGCHGLVWTGRFDAEGIRYSVQKTKEAGFDLIEFPLMDPFSFDVATAKSALAEHGLSVSASLGLSEATDVSSEDPAIVKAGEELLNRALDVLAELGATEFCGVIYSAMKKYMEPATEQGLSNSKAAVGRVVDRAAGLGINVSLEVVNRYETNVLNTGRQALSYLSDVKRPNLGVHLDTYHMNIEESDMFSPVLDTAEVLKYVHIGESHRGYLGTGSVDFDNFFKALGRIGYDGPVVFESFSSAVVAPDLSRMLGIWRNLWADNEELGAHANAFIRDKLTAIKTIELH
modifications: Arthrobacter histidinolovorans
B10: Ketose 3-epimerase mutant 16: amino acid-substituted mutant of SEQ ID NO: 1 (protein)
chain: MKIGCHGLVWTGRFDAEGIRYSVQKTKEAGFDLIEFPLMDPFSFDVATAKSALAEHGLSVSASLGLSEATDVSSEDPAIVKAGEELLNRALDVLAELGATEFCGVIYSAMKKYMEPATEQGLSNSKAAIGRVVDRAAGLGINVSLEVVNRYETNVLNTGRQALSYLSDVKRPNLGVHLDTYHMNIEESDMFSPVLDTAEALKYVHIGESHRGYLGTGSVDFDNFFKALGRIGYDGPVVFESFSSAVVAPDLSRMLGIWRNLWADNEELGAHANAFIRDKLTAIKTIELH
modifications: Arthrobacter histidinolovorans
B11: Ketose 3-epimerase mutant 17: amino acid-substituted mutant of SEQ ID NO: 1 (protein)
chain: MKIGCHGLVWTGRFDAEGIRYSVQKTKEAGFDLIEFPLMDPFSFDVATAKSALAEHGLTASASLGLSEATDVSSEDPAIVKAGEELLNRALDVLAELGATEFCGVIYSAMKKYMEPATEQGLSNSKAAVGRVVDRAAGLGINVSLEVVNRYETNVLNTGRQALSYLSDVKRPNLGVHLDTYHMNIEESDMFSPVLDTAEVLKYVHIGESHRGYLGTGSVDFDNFFKALGRIGYDGPVVFESFSSAVVAPDLSRMLGIWRNLWADNEELGAHANAFIRDKLTAIKTIELH
modifications: Arthrobacter histidinolovorans

What was measured:
[1] = Ketose 3-epimerase activity ratio (T70/T50) at reaction temperature of 70° C. to 50° C.; format: biochemical; details: crude recombinant enzyme; ratio of activity at 70° C. to activity at 50° C., 10 min reaction
Protocol: An enzyme having higher heat resistance than an amino acid substitution-free wild type enzyme can be obtained by introducing mutation into the gene of the ketose 3-epimerase of the present invention and substituting the corresponding amino acid residue with another amino acid residue by a site-directed mutagenesis operation to prepare various amino acid-substituted mutants. The heat resistance is evaluated by two indices, that is, a ketose 3-epimerase activity ratio (T70/T50) at the reaction temperatures of 70° C. to 50° C. and a residual activity after incubation at 60° C. for one hour.
Heat resistance of the present enzyme (crude recombinant enzyme) and the crude enzyme of the control enzyme was investigated by measuring an activity at 70° C. and an activity at 50° C. under the reaction conditions (10 minutes) used for determining the optimum temperature in the above 2 shown in Table 2 and finding their ratio (T70/T50).

[2] = Thermal stability: residual activity after incubation at 60° C. for one hour; format: biochemical; details: crude recombinant enzyme; after incubation at 60° C. for 1 hour
Protocol: Thermal stability of the enzyme was investigated by measuring the activity of the enzyme after incubation at 60° C. for one hour and finding its relative activity supposing that the activity at 60° C. under the reaction conditions (10 minutes) used for determining the optimum temperature in the above 2 shown in Table 2 was 100. As heat treatment conditions, the crude enzyme solution, a buffer (50 mM tris-HCl, pH 7.5), and 2 mM MgCl2 were used to give a total amount of 200 p1 and after retaining at 60° C. for one hour, the reaction mixture was cooled for 10 minutes in ice water. The residual enzyme activity was then measured by the conventional method.
The activity of each of the present enzyme (crude recombinant enzyme) and the crude enzyme of the control enzyme after incubation at 60° C. for 1 hour was measured and a relative activity of it was determined supposing that the activity at 60° C. under the reaction conditions (10 minutes) for determining the optimum temperature in the above 2 shown in Table 2 is 100. The relative activity was used as a heat resistance index of the enzyme. As heat treatment conditions, the crude enzyme solution, a buffer (50 mM tris-HCl, pH 7.5), and 2 mM MgCl2 were used to give a total amount of 200 p1 and after retaining at 60° C. for one hour, the reaction mixture was cooled for 10 minutes in ice water. The residual enzyme activity was measured by the conventional method.

| Molecule | T70/T50 [1] | Residual activity (%) [2] [%] |
| --- | --- | --- |
| B1 | 2.03 | 83.1 |
| B2 | 2.03 | 115.3 |
| B3 | 2.01 | 65.6 |
| B4 | 1.98 | 79.5 |
| B5 | 1.95 | 68.6 |
| B6 | 1.94 | 90.5 |
| B7 | 1.94 | 83.7 |
| B8 | 1.91 | 79.1 |
| B9 | 1.90 | 89.3 |
| B10 | 1.89 | 54.0 |
| B11 | 1.89 | 62.3 |
